# Test results from the domain aggregation screens of Martell et al. (2025).
# Assay: soluble fraction after stress (log2 fold change); higher = more stays soluble; pooled small domains, quantitative proteomics
# Settings: stress: 50 degC
# Procedure, shortened: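 Pooled custom libraries of small protein domains were each held under stress at 50°C. The read-out, high-throughput quantitative proteomics, tracked how much of each protein stayed soluble. This is reported as a base-two log fold change used to indicate aggregation propensity. Higher values mean more protein remains in solution.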
row,Sequence,soluble fraction (log2)
1,HMAPNVEENSKLIGEIGMTLTPLRPSGIATINNRRVDVVSNGDFIDQDERVMVKRVQGARVVVIPV,0.109
2,HMEAEQLEAIRSALQQLSDMNRTVFNLHVVDGYKHEEIAAMLNITTGTSKAHLHRAKKRLRELID,-0.975
3,HMIPDGKWKEDPISDGQKNFINSLIEQAIDAGQDELGAEAKKYLASGEATKGNASAMIDKLKSAL,0.392
4,HMTKINAPMPGNILDVKVNVGDHVEANQLVLMLEAMKMENEIFTPVAGTVVGVHVKKGDSVNSDDLLISI,-0.228
5,HMKEILTNESIIQFVKDKVSEEQIIYKINNSPIDFKLDVNSMVSLAKQNVSSTIIIAMENAMNN,-0.256
6,HMTKKEFLDILTESLAGNVPASEIEENIRYYKDYIENGEESEEKALEQLGDPHLIARTIIDSFIA,-0.127
7,HMRSVPNVAGLGMDGAAFQLGKAGFAIGTITPADDPKAVVGSIQRTEPAAGTVADRDTVVNLFQV,0.0939
8,HMRDLAEAETILDALPTRLRKIVRWRHLEGLSQTEIAARLEISQMHVSRLYRRAISMIHASLADD,-0.0123
9,HMNTVSVGNLGLSVRAVNALKQAGIDTYDKLQELSWEELLLIPKLGQVTAAEIYRFITSYKKG,-0.552
10,HMAQLSDDEQAIIDTITRRGDATMSELIASVNVSTPRLMSMLIDMEFRSLITALPGGRYQIRLIN,-0.912
11,HMQKLLGPFEDFVKIKLDKYPDTKAAQMHDWLKEHYPDFPEVTPKTVYNFVMYVRQRHNIPIPD,-0.0276
12,HMGAVQFAEQKIHIGSRWIGKKISEFSAESDAFVILIKRGSEVVIPRGPTDIVENDVLVIHVPD,-2.56
13,HMAVVAPLAGSVARVLVADGDEIEAGQVLLVLEAMKMETEITAPKAGKVGAILVGKGDSVQGGQGLR,-0.051
14,HMRQQSLHSLYRDHHSWLQNWLRRQLGNTWDAADLSQDTFIKVLASSQSVAEIREPRAYLLTVGKRL,-0.17
15,HMTLGENLQNLRKEAGLSQEQVAQQLFVSRQTVSKWENNLAEPGVENLKALARLYGVTLDRLVGM,-0.0572
16,HMNLAPLLTEYVQINFRRASEMKTYLEQANLISERGFLLADDQTNILMVRETGASIEEIRRTLNRF,-1.77
17,HMRIQTVDYNTFISMVEDGKVDAAEIQQQENRILFSDQDQKVYKTAMVPDDDLTQRLLDAGVSTNG,0.274
18,HMSINTIIAKNLNRLRNERNLSLGQLAELSGVSKVMLSQIEKGDSNPTVNTIWKIASGLNVPYTAILDQP,-0.0848
19,HMHPEPDPVLFIDGKEYPYDKLSELDETRVQSMTILPKKSAVKKYGDKYANRSIMEITLKKEN,0.0957
20,HMSEFVIPLAKYNKALYTQVSLGMRFRMLFETEDSGVRRYMGTITGIGDLDPIRWKNSHWRNLQV,0.111
21,HMEQSLNTYSIRTVKESLFLAETKNLNKIEKLVEGIEGRLTLSEALVLFSDKLNAMSVLSHVNANT,-0.148
22,HMGSTVRIVVPAADIPAYKDIQPSDLEYREVPKDEISEDAVTDPQEVINKYSTSPLYAGWPINKNIIET,0.0298
23,HMNAYEVLIPNIYIGQRVDQTLASLFPQFSRSRLQNWLARGNLLIDGEIIKPKTKVLGGEQIIILDT,-1.83
24,HMNVNSQQINDLEKSIQKFFDKDIKNYLNQNLSNDRMISKNEIDKIILLYYGSDKEPTLDEIKSIFN,-0.0913
25,HMTPESSLHSGLGKILHDALTAKIQLTNFEAKFLSDMQSKYDLNGSFSWLSSKQQTTLEKILAKYGR,-0.841
26,HMTELIEDYVELIGDLIRHRGEARAADIANRMAVSQATVSKMIRRLNELGLVTSKPYRSLFLTDEGQKMAE,-0.474

row,Sequence,soluble fraction (log2)
1,HMKPFSLESYKAFVVKRLGLFPETSSAQMHDWLKEEYPDFPLITPRTVYNFVMKIRQDYGIAKV,-3.66
2,HMRTSPGADYEKTYYTIQSGDNLGAIAEKMGVSVADLKDWNDISGTKIYAGKKLVIYVKKGST,0.183
3,HMVGPAHIGLAVAKDQLPHWERHLTANGVEIEGRMRWDHGGESIYFRDPDAHLLELVTPGIWAN,-0.0453
4,HMINLVPFELKFITAQVLDDIIKKIGINADTIILDINPKKIWVYAGEQELSDIQNIVKNVDVEDNI,-0.443
5,HMGSLGSLLKSVRNQRGLSRQQMAQSLNIGVRAIEQIEEGERKPDLELLNRYARGLMDPSVT,-0.0584
6,HMKDYQGEISVVASGERIDVYLFNYFNLFSRTKIKNHIKNGNILVNENIISPSYILKQNDKIAFNLGAPY,-2.39
7,HMDNEVTIAVQVNGKLRDKLIVALDTPNEKIEQLALALPKVIQNTSGLTVRKVIVIPNRLVNIVA,-0.171
8,HMLVMTDNVIKAINDLLNYEAAAGIKKKQRYTAYQIYKELSEQGVYHGSRRRMEEVVSKLRVERNQI,-2.78
9,HMKFTPPTLEQIKNEMLLKTDEYNADIQSDRFFTYYDSNGWMVGKNKMKKFLVSLVAVFAATSA,-0.446
10,HMKSSISKNWNPSKDAIEILTRAGIDQEFLENLIPEFVIYWIERSDVLISYNSKFIEHARLKWAQHTAEIQ,-0.0223
11,HMLYKNIAKKLRFRINSDEFAIGDVLPTERQLMEEYQASRVSIRKAIDELVAIDLIEKKQGSGTYIKQKEV,-0.919
12,HMNQLSYTERRVLQVIEGGTTKTGEIEQALAAKMSRPTVHRALDALVGANRIHRLARGEYALGPAP,-0.147
13,HMADVSPEAQHKMVEAFAQFGVTKEHIEQRIQRRLDAIQPAQMVTLKRIFASLRDGMSTPAEWFE,-0.227
14,HMEREQNIEHGRAIVERELKRLGLSDVYTIADIATALRHDDVDQFLAKIGFGDIQSTQIGGAIAALQQR,-0.0664
15,HMTNATVGQIKKLARASILYGNSNLSGNRYTYKANTTVTILQNISSNVDKIRVNVTGRVAYIDNSNYSSST,-3.56
16,HMGIVAGGTQSIATLRAIDTTDAQLYPDKILINVEDAGLYRLDRQSTATDDGNQVIKPTVGVGRWLKMTS,-0.11
17,HMKRANGTGSVFKLNGKRRNPWVARVTQGFDDKGRQKYVNLGYYKTKREAENELLSYNSNPYDAN,0.214
18,HMQNEQIAFSKFLQEVDSGRVVQVEIQGNNIKGILSDGSKFYTYSPNYPELVGKLSEKGVNIVASPVE,0.0802
19,HMLIVLKPNVSQEEIDHIVDKIRSLSLEPHVSTGVQRTIITVIGDEDVIREQPLEALAGVESVKSILKP,-0.0145
20,HMKLIIVPNLVGQSRRSVEISLQQIGLRIDTVYTEFNPDYPKGTVAWQFPKSGDHIKKGMGLQITVSQG,-0.522
21,HMLFGKKYLGKVPNDASGRISLWNDIVKHHQELQNIRAIENFTSDNVTVAQGDTKKAVVVTDYVT,-0.0557
22,HMPLITDIKIQVKNTEKVSLFVDGKYSFSLTISQLAEHKILKTNQEISAKQVAEFKKLSNLTNLYIRIVG,-0.149
23,HMGGPRDVPYSTFLIEVEKGQVAEVTIQDHKITGTYKNSNEPFITNAPDDPDLVSRLIKYGVGVQAKPPE,-0.0153
24,HMSKTQYTFKEVGSQFQLFAPSTKHTIMISADHPKYGWLTNQDQGRVINVYDTGKMTSSQDYYGLYKEVT,-0.155
25,HMRIASANAIYDELLNKRDDAKLAELKQEDINLYALYILQNGSADERAALENTQGIDVVLKEIINLQNG,-0.309
26,HMENQMIIYIDENDENKRLDSYLSEITPDYSRSKIQNFIKNGNVTVNDSNKKPSYLLKENDKISFELPQQ,0.00635

row,Sequence,soluble fraction (log2)
1,HMGTVFTDIMTDIASGKFPNVFPDSLEAQIQKNVTMAPDKLSATLQYGDKSVILPTTKGKEAAEAAVKAA,-0.0555
2,HMKREWKDDDPTVPAGWKVAWTTTSDNRAKIAFMSPDKKIFHSRKSALQHMLAAGTYAQSDIEKMTKGL,-0.112
3,HMSSIHQDAKQQLHEYIRTYIQPLMRAGKQVTVWDIIGHVTIRKPKLVQKIGTQQLINMVQDLLE,-0.213
4,HMEDIKHVVANNIKKYRKEERLTLQQLSYLTGVSKTMLNQIETEKSSPSITILWRISSGLKIPLSKLISSP,-1.61
5,HMNPSIALHDWLQSSEFKGSINLFAAALGMNPRTVEAWVYGRSTPSRRFWAKLYQITNLSRFRL,-0.836
6,HMSRKERERSQHRRDILAAGEKIFAQKGYFNATIEEIAREAEFSVGTIYNFFSNKETLYQEIIRSI,-0.298
7,HMDIGKNIQTIRYANKLTQDQVIAKLNLMGISMSKSTYAKLETNRMNIKVSELVALAKIFHTDINAF,-2.43
8,HMQRIFIDNHDRILYYSNPAGYIAGKEAVVDTMFQTQELERFLQKQSLSIRWEDGVYDRLLLGQ,0.016
9,HMKALHEEIAEKIQEQILRSNLAPGDKLDTELELAARYGVSRSTIRQALIQLESAGLIDRLHGRGTFVAD,0.425
10,HMAPKSALKIIEQISNNPRATMTDLANLTGYSRRWVAQTIKRLQEENIIKRIGSDKSGYWEIIG,-0.321
11,HMDPHEEELLRQLIRGDIAGYEVLFHKYYPTFFAFIKGMTKETVVAEDITQNIFMKVWLNRERLDAA,-0.0635
12,HMARKISVEALGKYFPNSPMLAAAVAVTGVMKKDEFIHEMRASYKHKFAKKPEVIDGNMKALTMTFEA,-0.126
13,HMSENKIMEIVQDLAREKSVILISHRLANVTAADKILYMEQGKIAESGTHEQLMAQNKAYAALFNKQQEL,-0.11
14,HMSTVISPLPGNIIKVLVPEGKSVKRGDTILTIESMKMENSIKAAYDGVVKKIYVQQAQIVMQGDPLFDL,-1.24
15,HMNEQVAVVSGSQVNVRSGPGTTSAVVGQVSKGDNLPVLNQSGDWYQIKLPGGNAGWVAGWLVSLRPTT,-0.0873
16,HMQMEDTDALLQVAKEVVAENQDTVEAYLGGREKAFASLIGAAMKKTRGKANPKVIRQLILDLIQ,0.254
17,HMSLPAYIKISEVIARRINAGQILAGDRLPNERTMAVEFGVAVGTLRKALYHLQVRGLVTRKHGSGNYINK,-0.177
18,HMSGSILVQVSATDLNIRKGPGTNYGTTGKYTGKGTFTIVETRSGQGSNAGWGKLKSGAGWISLDYAKR,-1.38
19,HMHVLNEEYYNRIKAIQFTMNHDDGNSLNDIEKSDIILLGVSRTSKTPTSIYLANRGLRTSNIPLINEK,-0.326
20,HMTDFNTFSDAIIAAVGSRASGLKVVDNAVSVMVDVSGLNEDQRVEIEADVRAAAEHAGAQSVRIMLT,-0.438
21,HMERFVVISKDKYANLREEASTNSKVLAKVDNSYLIYNTNTYNENKDWYSVQIERDGNYYQVGYIHKSQL,-1.79
22,HMGTRPAYAADAPNPQKRFIYHRIVDQLRNKATGAPISYRAIAAETGVSVQTVINIKNRMNQMLSEK,-0.0598
23,HMERPLFVIEDYRRFAGNEVEISLKKGGKKIRGVIAGTPSDAEVTVRTQGGETTVPLGDVKRAHLVYV,0.123
24,HMLNIVTIFEEQFGRPLSPIELNIIKDWKESDYSDEMIVKALKEAVKSQVLNFRYVEGILNNWAKNG,-0.568
